How the values were obtained:
purified protein = substrate: O=C(O)/C=C/c1ccccc1; assay: purified protein; details: 1 mM CoA, 1 mM ATP, 1 mM MgCl2, 50 mM Tris pH 7.5, 55°C, 0.5 μM enzyme, 50-7000 μM substrate
[1] = substrate: O=C(O)/C=C/c1ccc(O)cc1; assay: coupled pyrophosphate assay (EnzChek); format: biochemical, Chitinophaga pinensis; details: 1 mM CoA, 1 mM ATP, 1 mM MgCl2, 50 mM Tris pH 7.5, 55°C, 0.5 μM enzyme, 10-750 μM substrate

B1: FlxY (Chitinophaga pinensis DSM 2588) (protein)
chain: MYIPDIELQSTAAIRKYQETEVLRLLGYLRQFSPFYREWFAQHGIQPSTVKSLNDLWLIPPVTKEHLQQQNWDFLCVDKSRIAEYTTTSGTLGNPVIIALTQKDQERLSYNEYISFCCAGGTENDIYQLMLTLDRQFMAGMAYYNGIRKLGAGVLRVGPGVPSLQWENISRIQPTTIVAVPSFIVKLIAFAKEHNIDINASSVKSAVCIGENIRNVDFSLNVLGKKITEQWDIKLYSTYASTEMQTAFTECNAGQGGHHHPELLYIELLDDNNQPVGPNQDGEVTITTLGVEGMPLLRYKTGDICRYFQEPCSCGRHTMRLSPVIGRRKQMIKYKGTTLYPPALFDLLNDMEEVKEFVVEVFSNEIGTDEILLHLWPVAETEDIDRKIRSYLQAKLRVIPQVRYCSQADVMKMQFPEGSRKPIKFIDRR
notes: His6-tagged full-length (pCOLADuet-1, BamHI/HindIII), expressed in E. coli BL21 (DE3), HisTrap purified, tag kept; expected size 49 kDa
Work on B1 yielded a Km (purified protein) of 868 µM and a Km [1] of 17 µM.

— article PMC3992019, “Initiation of the flexirubin biosynthesis in Chitinophaga pinensis” (Microbial Biotechnology, 2014)
